Results: patent US20180237497A1 (CANCER RESEARCH TECHNOLOGY, published 2018)

Key:
[1] = molecular target: T1, human IGF2^1-67 (mature insulin-like growth factor 2) (human, UniProt P01344 25-91, biotinylated (site not stated) where immobilised on the chip (Tables 1-4)); experiment: SPR kinetic, biotin-IGF2 on chip, pH 7.4
T1 construct: mature; also called mature IGF2; biotinylated IGF2
How it was run: (§1)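 Biotinylated IGF2 captured on streptavidin chip; recombinant M6P/IGF2R domain 11 mutants (E. coli or P. pastoris) injected at 25° C in HBS-EP, pH 7.4, 40 μL min⁻¹. Kinetics fitted to 1:1 model; steady-state KD from 5 s response averages before injection end; 2-5 repeats on two chips.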

[2] = molecular target: T1, human IGF2^1-67 (mature insulin-like …); experiment: SPR steady state, biotin-IGF2 on chip, pH 7.4
How it was run: as §1

[3] = molecular target: T1, human IGF2^1-67 (mature insulin-like …); experiment: SPR steady state, biotin-IGF2 on chip, pH 7.4; remark: listed apart in the source
How it was run: (§2)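 Biacore SPR at 25 °C in HBS-EP pH 7.4 or MES-EP pH 6.5, flow 40 μL/min; ~50 RU biotin-IGF2:biotin-ubiquitin (1:8) on streptavidin chip, or Fc-domain 11 captured via anti-human IgG. Kinetics fitted to 1:1 model; steady-state affinity from response averaged 5 s before injection end.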

[4] = molecular target: T1, human IGF2^1-67 (mature insulin-like …); experiment: SPR
Excerpt: Surface plasmon resonance (SPR) binding analysis of recombinant M6P/IGF2R domain 11 mutants interaction with IGF2. Kon indicates association (on) rate; koff, dissociation (off) rate; RU, response units. Binding to IGF2 assessed with BIAcore T200 using purified biotinylated IGF2 and IGF1 on a streptavidin biosensor chip. Recombinant proteins were expressed either in E. coli and/or P. pastoris. All the mutants in the FG and CD loops are on the domain 11^AB5 background for the AB loop unless otherwise stated. All experiments were carried out at 25° C. in HBS-EP buffer (pH 7.4), were repeated 2-5 times on two independent BIAcore chips. nd=not determined. Data for KD expressed as mean of each experiment, and means of kon and koff are shown.
(§3) Final kinetic analysis of mutants by SPR was conducted using a Biacore T200 biosensor at 25° C. in either HBS-EP (10 mM HEPES pH 7.4, 150 mM NaCl, 3 mM EDTA, and 0.005% (v/v) surfactant P20) or MES-EP (20 mM MES pH 6.5, 150 mM NaCl, 3 mM EDTA, and 0.005% (v/v) surfactant P20) at a flow-rate of 40 μL min⁻¹. […] For the analysis of the Fc-domain 11^AB5 interaction, approximately 50 RU of a biotinylated IGF2:biotinylated ubiquitin mixture (1:8 proportion) was immobilized on the CM5-streptavidin chip. This interaction was also analysed by immobilizing the Fc-domain 11^AB5 and Fc-domain 11^AB5-RHH (or Fc-domain 11^I1572A as control) by Human Antibody Capture (monoclonal mouse anti-human IgG antibody immobilised on a CM5 chip by amine coupling, GE Healthcare) with and without human IgG1 Fc fragment (Bethyl Laboratories, UK) in the control flow cell. […] T200 BiaEvaluation software (GE Healthcare) was used to fit the resulting curves according to a 1:1 binding model.

[5] = molecular target: T1, human IGF2^1-67 (mature insulin-like …); experiment: SPR kinetic, biotin-IGF2 on chip, pH 6.5
Protocol: Measurements were carried out at 25° C. in MES-EP buffer, 20 mM MES pH 6.5, 150 mM NaCl, 3 mM EDTA, and 0.005% (v/v) surfactant P20). Data for KD expressed as mean of each experiment, and means of kon and koff are shown.
as §3, with “model. Steady state affinities were determined using the kinetic data, taking the response average at 5 seconds before injection end and for 5 seconds average. Thermodynamic data was performed across the temperature range of 10° C. to 30° C., van't Hoff and Erying plots generated and ΔH, −TΔS and ΔG values determined as previously described.” for “model.”

[6] = molecular target: T1, human IGF2^1-67 (mature insulin-like …); experiment: SPR (Biacore T200, 25 °C, HBS-EP pH 7.4); ΔΔG° = RT ln(KD mutant / KD domain 11^AB3); box AB
Protocol: (§4) Boxes show the change in the binding free energy contribution, ΔΔGº, for the indicated mutants. The loop/s that contains the mutation/s is indicated in each box. The ΔΔGº values were calculated as ΔΔGº=ΔGº domain 11^mutant−ΔGº domain 11^AB3=RTln(KD domain 11^mutant/KD domain 11^AB3). Additive and non-additive contributions of single point mutations are shown when calculated with a box solid line and dashed line, respectively.
(§5) Final kinetic analysis of mutants by SPR was conducted using a Biacore T200 biosensor at 25° C. in either HBS-EP (10 mM HEPES pH 7.4, 150 mM NaCl, 3 mM EDTA, and 0.005% (v/v) surfactant P20) or MES-EP (20 mM MES pH 6.5, 150 mM NaCl, 3 mM EDTA, and 0.005% (v/v) surfactant P20) at a flow-rate of 40 μL min⁻¹. […] This interaction was also analysed by immobilizing the Fc-domain 11^AB5 and Fc-domain 11^AB5-RHH (or Fc-domain 11^I1572A as control) by Human Antibody Capture (monoclonal mouse anti-human IgG antibody immobilised on a CM5 chip by amine coupling, GE Healthcare) with and without human IgG1 Fc fragment (Bethyl Laboratories, UK) in the control flow cell. […] Steady state affinities were determined using the kinetic data, taking the response average at 5 seconds before injection end and for 5 seconds average.

[7] = molecular target: T1, human IGF2^1-67 (mature insulin-like …); experiment: SPR kinetic, biotin-IGF2 on chip, pH 7.4; remark: listed apart in the source
How it was run: as §2

[8] = molecular target: T1, human IGF2^1-67 (mature insulin-like …); experiment: SPR, pH 7.4; pH 7.4
Protocol: as §3, with “model. Steady state affinities were determined using the kinetic data, taking the response average at 5 seconds before injection end and for 5 seconds average. Thermodynamic data was performed across the temperature range of 10° C. to 30° C., van't Hoff and Erying plots generated and ΔH, −TΔS and ΔG values determined as previously described.” for “model.”

[9] = molecular target: T1, human IGF2^1-67 (mature insulin-like …); experiment: SPR, biotin-IGF2 on chip, lower pH (6.5); reference domain 11^WT
Protocol: as §3, with “model. Steady state affinities were determined using the kinetic data, taking the response average at 5 seconds before injection end and for 5 seconds average. Thermodynamic data was performed across the temperature range of 10° C. to 30° C., van't Hoff and Erying plots generated and ΔH, −TΔS and ΔG values determined as previously described.” for “model.”

[10] = molecular target: T1, human IGF2^1-67 (mature insulin-like …); experiment: SPR (Biacore T200, 25 °C, HBS-EP pH 7.4); ΔΔG° = RT ln(KD mutant / KD domain 11^AB3); box AB+CD+FG+FG
Protocol: as §4, §5

[11] = molecular target: T1, human IGF2^1-67 (mature insulin-like …); experiment: SPR (Biacore T200, 25 °C, HBS-EP pH 7.4); ΔΔG° = RT ln(KD mutant / KD domain 11^AB3); box AB+CD+FG+FG, solid outline
Protocol: as §4, §5

T1 sequence (P01344 25-91): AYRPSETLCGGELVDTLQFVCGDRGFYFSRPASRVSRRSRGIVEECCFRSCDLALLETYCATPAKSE

Kd [1] [nM] | koff [1] [s⁻¹] | kon [1] [M⁻¹ s⁻¹] | Kd [2] [nM] | Kd [3] [nM] | fold higher affinity than domain 11^WT [4] [fold] | Kd [5] [nM] | koff [5] [s⁻¹] | kon [5] [M⁻¹ s⁻¹] | ΔΔG [6] [kcal/mol] | Kd [7] [nM] | koff [7] [s⁻¹] | kon [7] [M⁻¹ s⁻¹] | Kd [8] [nM] | fold improved overall affinity compared to domain 11^WT [9] [fold] | ΔΔG [10] [kcal/mol] | ΔΔG [11] [kcal/mol] | Binder
5.07 | 0.0208 | 4.21e+06 | 6.44 | 6.44 | 10 | 4.38 | 0.018 | 4.17e+06 | -0.65 | 5.07 | 0.0208 | 4.21e+06 | – | – | – | – | IGF2R domain 11^AB5 (receptor, His6-tagged soluble domain 11; also called 1542YAKGWG1547) MKSNEHDDCQVTNPSTGHLFDLSSLSGRAGFTAAYAKGWGVYMSICGENENCPPGVGACFGQTRISVGKANKRLRYVDQVLQLVYKDGSPCPSKSGLSYKSVISFVCRPEAGPTNRPMLISLDKQTCTLFFSWHTPLACEQATECSV
– | – | – | – | 1.31 | – | 0.43 | 0.0087 | 2.43e+07 | – | 0.62 | 0.0108 | 1.75e+07 | 0.78 | 100 | -1.9 | – | domain 11^AB3 Q1569R P1597H S1602H G1603K (receptor, See m5) MKSNEHDDCQVTNPSTGHLFDLSSLSGRAGFTAAYSKSGVVYMSICGENENCPPGVGACFGRTRISVGKANKRLRYVDQVLQLVYKDGSHCPSKHKLSYKSVISFVCRPEAGPTNRPMLISLDKQTCTLFFSWHTPLACEQATECSV
– | – | – | – | 2 | – | 0.71 | 0.003 | 4.41e+06 | – | 0.65 | 0.0038 | 5.9e+06 | – | – | – | -1.87 | domain 11^AB5 Q1569R P1597H S1602H (receptor, See m5) MKSNEHDDCQVTNPSTGHLFDLSSLSGRAGFTAAYAKGWGVYMSICGENENCPPGVGACFGRTRISVGKANKRLRYVDQVLQLVYKDGSHCPSKHGLSYKSVISFVCRPEAGPTNRPMLISLDKQTCTLFFSWHTPLACEQATECSV
